Reference: the supplement of paper PMC9732359
± gives the uncertainty stated by the source.

Experiment: protein stability index of a GFP-peptide fusion (yeast GPS) (PSI 1-4); higher = more stable; sorted into four equal gates, so the index is relative within each strain
Method in brief: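 For each peptide, the protein stability index sums the read frequency in every gate after multiplying it by the gate number. Read frequencies came from plasmids that were PCR-amplified from each gate and Illumina-sequenced, with reads assigned to strains by barcodes. The gates were four equal bins of GFP/Cherry fluorescence ratio applied to mid-log yeast in leucine-free medium carrying a pooled library of tiled 17-residue yeast protein peptides fused downstream of GFP on a Cherry-expressing plasmid.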

Sequence | protein stability index (doa10∆) | protein stability index (pdr5∆) | protein stability index (san1∆) | protein stability index (ubr1∆)
ELADLPKLKRIGLVKCT [GRR1] | 2.82 ± 0.085 | 2.71 ± 0.051 | 2.28 ± 0.088 | 2.88 ± 0.087
ELAESTTTKIIDSTDHI [LRP1] | 2.95 ± 0.1 | 3.11 ± 0.1 | 2.86 ± 0.24 | 2.63 ± 0.12
ELAGGNASLTIEDEDEP [SMC1] | 3.03 ± 0.08 | 3.09 ± 0.14 | 3 ± 0.059 | 3.16 ± 0.074
ELAQYMKTNVHTQANEP [RGR1] | 2.81 ± 0.081 | 2.99 ± 0.086 | 2.75 ± 0.064 | 2.75 ± 0.068
ELFKGYLADDIDADSLE [RPL5] | 3.02 ± 0.086 | 3.21 ± 0.076 | 3.23 ± 0.064 | 3.17 ± 0.087
ELGAINLHALSMSLQSK [SWI1] | 2.39 ± 0.058 | 2.33 ± 0.085 | 1.99 ± 0.27 | 2.46 ± 0.076
ELGISLEHPYGKEVEVL [SNU114] | 2.29 ± 0.082 | 2.34 ± 0.086 | 2.17 ± 0.094 | 2.14 ± 0.056
ELGNMTMLITGQRPDRA [SIN4] | 2.54 ± 0.09 | 2.83 ± 0.056 | 2.69 ± 0.09 | 2.31 ± 0.073
ELLDQVTLGREGQIIQR [CDC53] | 3.07 ± 0.14 | 3.73 ± 0.18 |  | 3.21 ± 0.19
ELLEYSDDIAENDNLDN [YCG1] | 3.06 ± 0.058 | 3.27 ± 0.068 | 3.21 ± 0.049 | 3.25 ± 0.054
ELLKLLNDEYNYPQLTE [YCS4] | 3.09 ± 0.096 | 3.11 ± 0.098 | 3.03 ± 0.059 | 3.25 ± 0.06
ELLPHYPFVTNDDIEWM [YJR042W/NUP85] | 2.54 ± 0.13 | 2.93 ± 0.086 | 2.87 ± 0.065 | 2.96 ± 0.073
ELMRIISRNGDTSYKID [SMC1] | 2.83 ± 0.087 | 3.08 ± 0.063 | 2.99 ± 0.072 | 2.95 ± 0.058
ELNEEKKRLMDIDDELN [SMC2] | 3.23 ± 0.095 | 3.42 ± 0.14 | 2.69 ± 0.15 | 3.51 ± 0.069
ELNVKHVKQCQETCDKL [SMC2] | 3 ± 0.18 | 3.47 ± 0.2 | 3.09 ± 0.082 | 3.31 ± 0.051
ELPLLSPERFATLGIDP [RPT1] | 2.41 ± 0.13 | 2.75 ± 0.18 | 3.27 ± 0.16 | 2.52 ± 0.19
ELPLVITMPATNGKPDM [ARP7] | 2.9 ± 0.088 | 3.04 ± 0.074 | 2.9 ± 0.065 | 2.99 ± 0.059
ELRRFESSINTHPHAAD [SKI6] | 2.73 ± 0.081 | 3.08 ± 0.054 | 2.56 ± 0.064 | 2.87 ± 0.055
ELSDSDRQIINEKMQLL [SIR4] | 2.76 ± 0.049 | 2.8 ± 0.055 | 2.56 ± 0.06 | 2.32 ± 0.047
ELSIRFPQYKLTTFANQ [ARP7] | 1.69 ± 0.062 | 1.51 ± 0.085 | 1.65 ± 0.12 | 1.59 ± 0.051
ELTDKLSALNSEISSLK [SMC1] | 3.15 ± 0.11 | 2.76 ± 0.094 | 3.02 ± 0.074 | 2.89 ± 0.076
ELTKTKSSLYSAQDLLD [YIL149C/MLP2] | 2.67 ± 0.05 | 2.84 ± 0.05 | 2.6 ± 0.07 | 2.83 ± 0.029
ELTQVPSARQKYMVKGG [UBP6] | 2.6 ± 0.13 | 2.83 ± 0.095 | 2.95 ± 0.1 | 2.96 ± 0.11
EMAEKIDFTLLNRLLRL [PRP8] | 2.72 ± 0.058 | 2.93 ± 0.058 | 2.57 ± 0.054 | 2.37 ± 0.049
EMNLHVPQTEEARAEAI [RPO31] | 3.09 ± 0.1 | 3.08 ± 0.085 | 3.05 ± 0.08 | 3.12 ± 0.045
EMVENSSENNQIILAYI [SRP68] | 3.21 ± 0.1 | 3.11 ± 0.088 | 2.77 ± 0.08 | 3.35 ± 0.062
ENEISSLLAMHKHNIMK [CDC53] | 2.92 ± 0.079 | 2.99 ± 0.059 | 3.02 ± 0.052 | 3.07 ± 0.039

Sequence | protein stability index (doa10∆) | protein stability index (pdr5∆) | protein stability index (san1∆) | protein stability index (ubr1∆)
ENFSNGISLVMEIVANA [MED1] | 2.12 ± 0.067 | 2.53 ± 0.054 | 2.5 ± 0.057 | 2.51 ± 0.034
ENGDEDEDEDEDEDDDD [QCR6] | 2.01 ± 0.045 | 1.74 ± 0.038 | 1.92 ± 0.05 | 2.46 ± 0.043
ENLMVQRTCLMTVTFLI [YCS4] | 2.09 ± 0.053 | 1.97 ± 0.045 | 2.16 ± 0.07 | 2.04 ± 0.038
ENSIGYNNRKCWPKDSR [PRP8] | 3.08 ± 0.16 | 2.95 ± 0.18 |  | 2.87 ± 0.29
EPEFHALSQSSLLKTKL [RRI1] | 2.15 ± 0.042 | 2.69 ± 0.039 | 2.39 ± 0.042 | 2.24 ± 0.037
EPFNAGIKYHATPPLKR [SMC1] | 3.05 ± 0.071 | 3.12 ± 0.071 | 2.79 ± 0.062 | 2.97 ± 0.045
EPILGQITLTFISELCS [YML103C/NUP188] | 2.6 ± 0.06 | 2.32 ± 0.062 | 3.1 ± 0.055 | 3.02 ± 0.044
EPIYGVQYKLLSISVPS [SNU114] | 2.18 ± 0.12 | 2.76 ± 0.18 | 2.02 ± 0.18 | 3.09 ± 0.11
EPKKDKESIVLPTVGFD [YOR098C/NUP1] | 2.43 ± 0.18 | 3.43 ± 0.19 | 3.11 ± 0.16 | 2.92 ± 0.07
EPKKPSFTFASSKTSQP [YOR098C/NUP1] | 2.93 ± 0.047 | 2.88 ± 0.037 | 2.9 ± 0.045 | 3.04 ± 0.031
EPKQKANAVQNNNGNSA [SRP21] | 3.07 ± 0.083 | 3.24 ± 0.07 | 2.85 ± 0.19 | 3.24 ± 0.12
EPNLAAQQDSTNVRLYS [ECM29] | 2.88 ± 0.11 | 2.9 ± 0.063 | 2.81 ± 0.089 | 2.37 ± 0.074
EPPLSYEQHIENIEPLD [PRP8] | 2.44 ± 0.087 | 2.97 ± 0.097 | 2.32 ± 0.12 | 3.03 ± 0.27
EPTYRLVRYGLAEKVEK [RPS24A] | 3.48 ± 0.19 | 3.42 ± 0.2 |  | 3.12 ± 0.19
EQDALFITRLAQGLLHL [RPN1] | 2.88 ± 0.1 | 2.69 ± 0.12 | 2.38 ± 0.14 | 2.29 ± 0.14
EQLSKQRDLYKRKEELV [SMC2] | 2.34 ± 0.15 | 3.1 ± 0.19 | 2.67 ± 0.086 | 2.73 ± 0.084
EQSNSRKRTRSEAEQID [YCG1] | 3.35 ± 0.19 | 3.4 ± 0.26 | 2.81 ± 0.1 | 
EQTEGEPKKKRGFLGLF [SRP68] | 3.1 ± 0.096 | 3.26 ± 0.11 | 2.9 ± 0.064 | 2.76 ± 0.066
EQVAEEAAAAEEGEEEE [RPS0B] |  | 3.33 ± 0.26 |  | 
ERAKNVNGLLQVLMDIN [GAL11] | 2.94 ± 0.086 | 3.15 ± 0.083 | 3.19 ± 0.12 | 2.83 ± 0.04
ERDCVIAYGASQLLLER [RET1] | 1.18 ± 0.058 | 1.28 ± 0.057 | 1.24 ± 0.14 | 1.11 ± 0.051
ERDFYHSLREYINGKAT [RPO31] | 2.58 ± 0.044 | 2.43 ± 0.044 | 2.9 ± 0.037 | 1.75 ± 0.023
ERDSYKLLASTEENKAN [YIL149C/MLP2] | 2.76 ± 0.054 | 2.77 ± 0.047 | 2.84 ± 0.046 | 3.06 ± 0.034
ERFTKSKTLSLIQSYSL [FAS1] | 2.29 ± 0.063 | 2.06 ± 0.043 | 1.93 ± 0.11 | 2.06 ± 0.039
ERGGKFHESGSQYSTMV [RGR1] | 3.36 ± 0.12 | 3.45 ± 0.12 | 3.44 ± 0.25 | 3.3 ± 0.14
ERKKQSDVLRFLQRVRV [RPL15B] | 2.08 ± 0.06 | 2.43 ± 0.062 | 2.04 ± 0.066 | 2.12 ± 0.043
